B1: library; numbered along this chain (parent)
chain: MAAAAAAAAEQQSSNGPVKKSMREKAVERRSVNKEHNSNFKAGYIPIDEDRLHKTGLRGRKGNLAICVIILLFILAVINLIITLVIWAVIRIGPNGCDSMEFHESGLLRFKQVSDMGVIHPLYKSTVGGRRNENLVITGNNQPIVFQQGTTKLSVENNKTSITSDIGMQFFDPRTQNILFSTDYETHEFHLPSGVKSLNVQKASTERITSNATSDLNIKVDGRAIVRGNEGVFIMGKTIEFHMGGNMELKAENSIILNGSVMVSTTRLPSSSSGDQLGSGDWVRYKLCMCADGTLFKVQVTSQNMGCQISDNPCGNTH

Variants of: B1
Assay: SGCB cell-surface expression functional score (HA stain, bin4 vs bin1, normalised to synonymous) (log10 ratio); higher = more cell-surface SGCB (functional)
Experimental: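 Deep mutational scan of full-length human SGCB (YFP-SGCB-HA, NNN codon sublibraries A-F) delivered by lentivirus at low MOI into ADG-HEK293 cells stably expressing SGCA, SGCD and SGCG. YFP-positive cells were stained for surface HA on unpermeabilized cells and FACS-sorted into bins. The functional score is log10(frequency in high bin 4 / frequency in low bin 1), normalised per chunk so that synonymous variants have mean 0 and SD 0.5. Scores are the median over codons and over duplicate biological replicates; scores below -0.5 are called non-functional. Scale: negative means deleterious.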

SGCB cell-surface expression functional score (log10): each site, then its substitutions
R130: N -0.47, V -0.41, M 0.56, F 0.13, Y 0.43, H 0.08, D -1.07, S -0.4, I 0.29, E 0.14, K -0.01, G -0.2, T -0.51, L 0.65, A 0.27, Q 0.47, W -0.57, P 0.33, C -0.28
V127: I -0.32, D -1.79, K -1.2, Y -1.55, N -0.94, S -1.34, E -0.65, C 0.53, G -0.79, A -0.57, L -0.04, P -0.5, F -0.12, T -0.96, Q -1.97, W -1.36, R -0.96, H -1.08, M -0.2
L135: P -1, Y -0.88, I -0.47, A -1.13, K -1.3, W -0.88, E -1.07, N -1.44, F -0.08, V -0.35, G -1.2, S -1.11, D -1.2, M -0.06, R -0.77, C -0.83, H -1.28, Q -1.5, T -1.04
Q142: E -0.04, M 0.97, S 0.05, V -0.05, T -0.17, I -0.41, W 0.21, L -0.54, H -0.52, G -0.22, D -0.54, Y -0.3, F 0.14, P -1.08, K -0.31, N -0.43, C -0.01, R -0.5, A -0.06
N134: D 0.11, K 0.09, V -0.29, M -0.26, R -0.6, E -0.18, H 0.34, I -0.65, Y -0.82, W -0.71, F -0.37, S 0.08, Q -0.54, T -0.26, P -0.03, C -0.25, L -0.84, G -0.09, A 0.39
T138: P -1, W 0.68, R -0.08, K -0.25, N 0.54, F 0.14, S 0.4, D -0.39, A -0.51, I 0.11, L 0.16, E -0.61, M 0.02, V 0.19, C -0.1, Y -0.33, Q -0.47, H 0.22, G -0.34
G128: T -0.56, L 0.03, F 0.6, A 0.14, R -0.6, W 0.3, N 0.37, D -0.05, K -1.35, V -0.76, S 0.07, H -0.22, I 0.01, C -0.21, Q -0.11, P -1.25, Y 0.6, E 0.08, M 0.04
N140: H -0.65, S -0.38, E 0.35, I -0.12, R 0.05, L -0.39, W -0.93, A -0.08, P -0.49, K -0.48, V 0.16, Y -0.05, D -0.24, C -0.04, T -0.19, G 0.06, F -0.56, Q -0.33, M -0.05
R131: V 0.31, L 0.13, F -0.03, S -0.09, Y 0.31, C 0.15, A 0.14, N 0.24, G 0.16, H -0.12, W 0.6, P -0.13, I 0.65, D 0.14, K 0.23, Q -0.6, T -0.17, E 0.66, M 0.59
G139: C -0.65, Q -1.77, K -1.52, S 0.06, R -0.98, P -1.13, V -1.28, I -0.91, N 0.52, H -1.79, M -1.05, E -0.91, F -1.58, D -0.84, T -0.23, Y -1.89, A -0.13, W -0.74, L -1.18
N141: H -0.24, P -0.87, A -0.39, V -0.25, F -0.33, C 0.03, Y -0.56, S 0.17, R 0.07, G -0.3, M 0.71, I -0.7, K -0.5, D -0.21, E -0.4, W -0.63, L -0.45, T -0.25, Q -0.08
V136: D -0.33, I 0.32, L 0.17, H -0.22, R -0.57, S -0.3, W 0.57, A 0.05, T -0.51, G -0.58, N -0.01, E 0.05, C -0.25, F 0.49, M -0.57, P -1.03, Q 0.22, Y 0.15, K 0.36
G129: M -0.82, H -0.43, F -0.78, E -0.9, W -1.42, R -1.04, L -1.15, D -0.94, S 0.47, K -1.37, T -0.06, Q -1.09, A -0.41, Y -0.91, P 0.12, C -1.01, N -0.81, I -0.84, V -0.74
P143: R -0.34, G -0.72, S -0.44, T -0.41, E -0.73, H -0.41, D -0.9, A -0.21, K -0.28, L -0.54, M 0.69, I -0.11, F -0.1, N -0.09, C 0.07, Q -0.7
I137: D -1.25, A -1.07, F -0.01, Y -1.36, S -1.35, R -1.41, Q -1.71, H -1.24, E -0.97, L -0.12, T -0.7, P -1.44, M 0.54, V -0.52, W -0.8, N -1.72, K -1.21, C -1.42, G -1.08
E133: K -0.35, D 0.54, C 0.05, T 0.08, L -0.3, S 0.19, R -0.14, Q -0.09, N 0.04, Y -0.25, V -0.31, F -0.38, W 0.5, H 0.17, I -0.47, A -0.35, P -1, G -0.14, M -0.21
T126: W 0.62, Q -0.75, K -0.52, P -0.31, H 0.76, L -0.13, I 0.24, R -0.36, G -0.18, M 0.29, Y 0.74, V -0.28, S 0.02, N -0.36
N132: S -0.31, I -0.22, A 0.15, T -0.61, W -0.63, Q -0.01, V -0.38, R -0.38, M -0.85, Y 0.44, D -0.52, H 0.63, E 0.11, F -0.11, G 0.13, C 0.33, P -1.06, L -0.16, K -0.36

Reference: the supplement of paper PMC10266784
